We go through two substances from PMC6784197.

The target in assay [1] is <EGFR> Ha-Lw. The assay can be described thus: SPR; monovalent (affinity) set-up: antibody captured via anti-hFc on CM5 chip, huEGFR ECD as analyte 19-300 nM; Biacore T200, HBS-P+ pH 7.4, 25 °C; 1:1 Langmuir model. For orientation: Surface plasmon resonance follows binding to a sensor surface in real time, without labels.
In assay [2] the target is <EGFR> Hb-Lw. The assay is described as above.
In assay [3] the target is <EGFR> Hw-La. Described as above.
In assay [4] the target is <Her2/neu> Ha-Lw. Put plainly: SPR; monovalent (affinity) set-up: antibody captured via anti-hFc on CM5 chip, huHer2 ECD as analyte 19-300 nM; Biacore T200, HBS-P+ pH 7.4, 25 °C; 1:1 Langmuir model.
Sequence of <Her2/neu> Ha-Lw (heavy, as listed by the source, chain 1 of 2): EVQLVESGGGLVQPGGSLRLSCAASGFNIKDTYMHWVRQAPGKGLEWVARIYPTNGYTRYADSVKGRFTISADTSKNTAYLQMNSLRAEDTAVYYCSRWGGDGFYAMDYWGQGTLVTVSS
Sequence of <Her2/neu> Ha-Lw (light, as listed by the source, chain 2 of 2): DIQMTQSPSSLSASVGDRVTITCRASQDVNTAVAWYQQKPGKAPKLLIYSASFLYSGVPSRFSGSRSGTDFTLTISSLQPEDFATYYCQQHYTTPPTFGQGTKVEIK
For assay [5], the target named is <Her2/neu> Hg-Lw. Described as above.
Sequence of <Her2/neu> Hg-Lw (heavy, as listed by the source, chain 1 of 2): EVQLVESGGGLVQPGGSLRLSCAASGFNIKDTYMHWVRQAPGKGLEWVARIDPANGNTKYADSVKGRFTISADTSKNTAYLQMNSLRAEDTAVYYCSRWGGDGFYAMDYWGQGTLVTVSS
In assay [6] the target is <Her2/neu> Hg-Lg. Described as above.
Sequence of <Her2/neu> Hg-Lg (light, as listed by the source, chain 2 of 2): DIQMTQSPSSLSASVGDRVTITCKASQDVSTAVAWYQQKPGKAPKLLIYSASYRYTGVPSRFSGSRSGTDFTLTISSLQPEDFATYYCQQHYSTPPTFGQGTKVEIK
The target of assay [7] is <Her2/neu> Hb-Lw. The description is as above.
Sequence of <Her2/neu> Hb-Lw (heavy, as listed by the source, chain 1 of 2): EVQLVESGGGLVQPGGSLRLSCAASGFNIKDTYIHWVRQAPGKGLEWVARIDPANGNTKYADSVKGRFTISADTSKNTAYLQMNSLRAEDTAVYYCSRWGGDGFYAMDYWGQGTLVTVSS

Usually Kd stands for the equilibrium constant for the complex coming apart. Lower therefore signals higher affinity. For the substance “huEGFR ECD (from UniProt P00533 25-645) (domain or fragment)”, the Kd in assay [1] came out at 0.73 nM; in assay [2] it was 0.66 nM; in assay [3] it was 3.5 nM.
As for “huHer2 ECD (from UniProt P04626 23-652) (domain or fragment)”, the Kd in assay [4] was 2.1 nM; in assay [5], 340 nM; in assay [6], 390 nM; in assay [7], 390 nM.
